# According to patent US20170022287A1:
# Residue numbers refer to the chain shown, from its start.
# B1: R2 (antibody, V domains shown)
# VH: EVQLQESGPGLVKPSETLSLTCTVSGGSISSSSYYWGWIRQPPGKGLEWIGSIHYTGSTYYNPSLKSRVTISVDTSKNQFSLKLSSVTAADTAVYYCARLNPSIAARPGAFDIWGQGTMVTVSS
# VL: QSVLTQPPSVSAAPGQKVTISCSGSSSNIANNFVSWFQQLPGTAPKLLIYDNNKRPSGIPDRFSGSKSGTSATLGITGLQTGDEADYYCGTWDRSLSAGVFGGGTKVTVL
# B2: R1 (antibody, V domains shown)
# VH: EVQLVQSGAEVKKPGASVKVSCKASGYTFTSYYTHWVRQAPGQGLEWMGIINPSGGSTSYAQKFQGRVTMTRDTSTSTVYMELSSLRSEDTAVYYCARGAPEYSSSSDYWGQGTMVTVSS
# VL: QSALTQPASVSGSPGQSITISCTGTSSDVGGYNYVSWYQQHPGKAPKLMIYDVSNRPSGVSNRFSGSKSGNTASLTISGLQAEDEADYYCSSYTSSSTRWVFGGGTKLTVL
# B3: R13 (antibody, V domains shown)
# VH: QVQLVESGGGLVQPGGSLRLSCAASGFTFSYYDIQWVRQAPGKGLEWVSSISPSGQSTYYRREVKGRFTISRDNSKNTLYLQMNSLRAEDTAVYYCARRTGREYGGGWYFDYWGQGTLVTVSS
# VL: DIQMTQSPSSLSASVGDRVTITCRASQSISSYLNWYQQKPGKAPKLLIYAASSLQSGVPSRFSGSGSGTDFTLTISSLQPEDFATYYCQQFSRFPLTFGGGTKVEIK
# B4: R8 (antibody, V domains shown)
# VH: QVQLQESGPGLVKPSETLSLTCAVSGYSISSGYYWGWIRQPPGKGLEWIGSIYHSGSTYYNPSLKSRVTISVDTSKNQFSLKLSSVTAADTAVYYCARQHSFTRYYGYYYFDYWGQGTTVTVSS
# VL: B3 VL with Q89L, F91S, S92D, R93S, F94I
# B5: R11 (antibody, V domains shown)
# VH: QVQLLESGGGLVQPGGSLRLSCAASGFTFSSYAMSWVRQAPGKGLEWVSAISGSGGSTYYADSVKGRFTISRDNSKNTLYLQMNSLRAEDTAVYYCARDKWYYYPALDYWGQGTLVTVSS
# VL: B3 VL
# B6: R14 (antibody, V domains shown)
# VH: B5 VH
# VL: B3 VL with Q89L, F91V, S92Y, F94S
# Key:
# [1] = target: full-length human CD137-Fc fusion protein (human); assay: ELISA, coated CD137-Fc protein 2 µg/mL, antibody 10 or 5 µg/mL; absorbance 620 nm divided by that of the uncoated well
# Chain of full-length human CD137-Fc fusion protein (human) (chain, as listed by the source limits assumed): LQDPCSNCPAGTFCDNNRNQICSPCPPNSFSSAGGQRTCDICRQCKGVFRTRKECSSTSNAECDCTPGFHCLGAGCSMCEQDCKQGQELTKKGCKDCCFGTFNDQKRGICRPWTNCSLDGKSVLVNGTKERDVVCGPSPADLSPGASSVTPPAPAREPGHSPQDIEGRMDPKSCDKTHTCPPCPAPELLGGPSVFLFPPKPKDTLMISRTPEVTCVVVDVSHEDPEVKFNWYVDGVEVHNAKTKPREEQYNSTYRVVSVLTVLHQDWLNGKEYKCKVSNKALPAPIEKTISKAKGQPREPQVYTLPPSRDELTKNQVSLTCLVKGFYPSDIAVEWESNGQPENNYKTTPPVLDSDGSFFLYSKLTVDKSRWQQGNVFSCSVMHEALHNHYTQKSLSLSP
# [2] = target: full-length human CD137-Fc fusion protein (human); assay: ELISA, coated CD137-Fc protein 2 µg/mL, antibody 10 or 5 µg/mL, absorbance 620 nm; Non (uncoated well) 0.202
# CRD1-3 [3] = assay: ELISA, coated CD137-Fc protein 2 µg/mL, antibody 10 or 5 µg/mL, absorbance 620 nm; Non (uncoated well) 0.065
# Chain of CRD1-3 (chain, as listed by the source limits assumed): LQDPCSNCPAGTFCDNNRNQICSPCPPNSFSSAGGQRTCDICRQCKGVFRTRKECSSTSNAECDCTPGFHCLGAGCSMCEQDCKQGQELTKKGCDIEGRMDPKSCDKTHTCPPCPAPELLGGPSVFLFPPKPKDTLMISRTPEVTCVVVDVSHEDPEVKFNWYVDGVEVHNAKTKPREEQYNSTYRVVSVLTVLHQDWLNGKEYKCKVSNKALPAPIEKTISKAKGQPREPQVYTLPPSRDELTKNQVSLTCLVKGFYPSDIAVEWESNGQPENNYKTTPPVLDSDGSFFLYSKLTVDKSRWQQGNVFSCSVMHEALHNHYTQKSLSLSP
# CRD1-3 [4] = assay: ELISA, coated CD137-Fc protein 2 µg/mL, antibody 10 or 5 µg/mL; absorbance 620 nm divided by that of the uncoated well
# CRD1-2 [5] = assay: ELISA, coated CD137-Fc protein 2 µg/mL, antibody 10 or 5 µg/mL, absorbance 620 nm; Non (uncoated well) 1.146
# Chain of CRD1-2 (chain, as listed by the source limits assumed): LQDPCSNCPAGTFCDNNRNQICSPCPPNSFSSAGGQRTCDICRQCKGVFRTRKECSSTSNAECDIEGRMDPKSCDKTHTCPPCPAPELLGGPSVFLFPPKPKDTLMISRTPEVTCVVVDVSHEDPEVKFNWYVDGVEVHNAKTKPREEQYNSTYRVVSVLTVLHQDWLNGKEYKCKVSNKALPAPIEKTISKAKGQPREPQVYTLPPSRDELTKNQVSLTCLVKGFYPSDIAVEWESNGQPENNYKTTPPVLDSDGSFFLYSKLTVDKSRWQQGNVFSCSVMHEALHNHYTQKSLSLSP
# CRD3-4 [6] = assay: as above
# Chain of CRD3-4 (chain, as listed by the source limits assumed): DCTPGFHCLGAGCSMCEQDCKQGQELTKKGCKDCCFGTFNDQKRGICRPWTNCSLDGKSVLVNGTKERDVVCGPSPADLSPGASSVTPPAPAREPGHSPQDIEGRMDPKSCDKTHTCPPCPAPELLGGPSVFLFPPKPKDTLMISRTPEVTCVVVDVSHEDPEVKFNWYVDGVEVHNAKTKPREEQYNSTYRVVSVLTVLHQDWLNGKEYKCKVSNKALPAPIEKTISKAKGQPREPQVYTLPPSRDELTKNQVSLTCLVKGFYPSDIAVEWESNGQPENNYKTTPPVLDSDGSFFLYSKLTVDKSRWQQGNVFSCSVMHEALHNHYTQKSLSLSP
# CRD1 [7] = assay: as above
# Chain of CRD1 (chain, as listed by the source limits assumed): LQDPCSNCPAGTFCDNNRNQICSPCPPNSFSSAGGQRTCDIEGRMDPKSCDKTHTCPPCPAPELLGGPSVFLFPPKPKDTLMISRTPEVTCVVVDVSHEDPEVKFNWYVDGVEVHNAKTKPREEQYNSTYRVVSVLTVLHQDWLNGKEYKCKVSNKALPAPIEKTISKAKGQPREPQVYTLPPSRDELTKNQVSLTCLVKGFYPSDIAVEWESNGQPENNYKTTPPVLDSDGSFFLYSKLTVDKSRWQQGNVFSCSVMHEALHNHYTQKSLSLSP
# CRD1-3 [8] = assay: as above
# CRD2-3 [9] = assay: as above
# Chain of CRD2-3 (chain, as listed by the source limits assumed): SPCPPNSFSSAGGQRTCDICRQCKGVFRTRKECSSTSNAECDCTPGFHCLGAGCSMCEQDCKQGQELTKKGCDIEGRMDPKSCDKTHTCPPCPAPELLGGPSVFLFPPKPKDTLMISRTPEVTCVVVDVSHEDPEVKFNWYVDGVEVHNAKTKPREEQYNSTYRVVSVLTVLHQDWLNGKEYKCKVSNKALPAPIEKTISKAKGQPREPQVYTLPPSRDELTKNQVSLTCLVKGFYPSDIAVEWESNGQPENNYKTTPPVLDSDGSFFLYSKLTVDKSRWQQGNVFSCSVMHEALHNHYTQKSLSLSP
# CRD2-4 [10] = assay: as above
# Chain of CRD2-4 (chain, as listed by the source limits assumed): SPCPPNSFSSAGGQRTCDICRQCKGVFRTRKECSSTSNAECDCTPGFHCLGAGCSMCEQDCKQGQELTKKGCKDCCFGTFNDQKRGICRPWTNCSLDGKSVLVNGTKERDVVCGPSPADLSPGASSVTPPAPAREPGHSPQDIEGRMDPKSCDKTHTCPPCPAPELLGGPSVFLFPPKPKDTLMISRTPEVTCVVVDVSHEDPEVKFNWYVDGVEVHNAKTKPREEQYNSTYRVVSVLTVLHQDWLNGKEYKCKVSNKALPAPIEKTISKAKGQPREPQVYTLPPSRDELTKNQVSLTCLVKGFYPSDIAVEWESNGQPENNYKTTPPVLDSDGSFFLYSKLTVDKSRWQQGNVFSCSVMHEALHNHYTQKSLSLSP
# CRD1-2 [11] = assay: ELISA, coated CD137-Fc protein 2 µg/mL, antibody 10 or 5 µg/mL; absorbance 620 nm divided by that of the uncoated well
# CRD3-4 [12] = assay: as above
# CRD1 [13] = assay: as above
# CRD2-3 [14] = assay: as above
# CRD2-4 [15] = assay: as above
# CRD3-4 [16] = assay: ELISA, coated CD137-Fc protein 2 µg/mL, antibody 10 or 5 µg/mL, absorbance 620 nm; Non (uncoated well) 1.114
# CRD1-3 [17] = assay: as above
# CRD2-3 [18] = assay: as above
# [19] = target: full-length human CD137-Fc fusion protein (human); assay: as above
# CRD2-4 [20] = assay: as above
# CRD1-2 [21] = assay: ELISA, coated CD137-Fc protein 2 µg/mL, antibody 10 or 5 µg/mL, absorbance 620 nm; Non (uncoated well) 2.0265
# CRD3-4 [22] = assay: as above
# CRD1 [23] = assay: as above
# CRD1-3 [24] = assay: as above
# CRD2-3 [25] = assay: as above
# CRD2-4 [26] = assay: as above
# CRD1-2 [27] = assay: ELISA, coated CD137-Fc protein 2 µg/mL, antibody 10 or 5 µg/mL, absorbance 620 nm; Non (uncoated well) 2.2055
# CRD3-4 [28] = assay: as above
# CRD1 [29] = assay: as above
# CRD1-3 [30] = assay: as above
# CRD2-3 [31] = assay: as above
# CRD2-4 [32] = assay: as above
Binder,Ratio with respect to Non-Coating [1],Ratio with respect to Non-Coating (CRD1-3 [4]),Ratio with respect to Non-Coating (CRD1-2 [11]),Ratio with respect to Non-Coating (CRD3-4 [12]),Ratio with respect to Non-Coating (CRD1 [13]),Ratio with respect to Non-Coating (CRD2-3 [14]),Ratio with respect to Non-Coating (CRD2-4 [15]),also measured
B1,1,,,,,,,ELISA color development level [2]: 0.205
B2,,7.3,,,,,,ELISA color development level (CRD1-3 [3]): 0.473
B3,,0.7,0.4,0.2,0.5,0.5,0.4,ELISA color development level (CRD1-2 [5]): 0.45; ELISA color development level (CRD3-4 [6]): 0.26; ELISA color development level (CRD1 [7]): 0.601; ELISA color development level (CRD1-3 [8]): 0.787; ELISA color development level (CRD2-3 [9]): 0.555; ELISA color development level (CRD2-4 [10]): 0.455
B4,1.9,2,,2.3,,2.2,2,ELISA color development level (CRD3-4 [16]): 2.52; ELISA color development level (CRD1-3 [17]): 2.25; ELISA color development level (CRD2-3 [18]): 2.42; ELISA color development level [19]: 2.09; ELISA color development level (CRD2-4 [20]): 2.23
B5,,1.2,0.8,1.4,0.9,1.3,1.1,ELISA color development level (CRD1-2 [21]): 1.69; ELISA color development level (CRD3-4 [22]): 2.88; ELISA color development level (CRD1 [23]): 1.82; ELISA color development level (CRD1-3 [24]): 2.45; ELISA color development level (CRD2-3 [25]): 2.73; ELISA color development level (CRD2-4 [26]): 2.3
B6,,1.1,0.8,1.3,0.7,1.2,1,ELISA color development level (CRD1-2 [27]): 1.7; ELISA color development level (CRD3-4 [28]): 2.76; ELISA color development level (CRD1 [29]): 1.64; ELISA color development level (CRD1-3 [30]): 2.42; ELISA color development level (CRD2-3 [31]): 2.72; ELISA color development level (CRD2-4 [32]): 2.21
